Test results from US20130236470A1.

Columns and labels:
[1] = target: HLA-DR expressed by L428 cells (human); experiment: flow cytometry on L428 cells, antibody 7.8 ng/mL
[2] = target: HLA-DR expressed by L428 cells (human); experiment: flow cytometry on L428 cells, antibody 0.98 ng/mL
[3] = target: HLA-DR expressed by L428 cells (human); experiment: flow cytometry on L428 cells, antibody 1.95 ng/mL
[4] = target: HLA-DR expressed by L428 cells (human); experiment: flow cytometry on L428 cells, antibody 125.0 ng/mL
[5] = target: HLA-DR expressed by L428 cells (human); experiment: flow cytometry on L428 cells, antibody 250.0 ng/mL
[6] = target: HLA-DR expressed by L428 cells (human); experiment: flow cytometry on L428 cells, antibody 3.9 ng/mL
[7] = target: HLA-DR expressed by L428 cells (human); experiment: flow cytometry on L428 cells, antibody 31.2 ng/mL
[8] = target: HLA-DR expressed by L428 cells (human); experiment: flow cytometry on L428 cells, antibody 62.5 ng/mL
[9] = target: HLA-DR expressed by L428 cells (human); experiment: flow cytometry on L428 cells, antibody 15.6 ng/mL
[10] = target: HLA-DR expressed by L428 cells (human); experiment: flow cytometry on L428 cells, antibody 0.0 ng/mL (background)

- Ability to bind (average strength) [1]: 430
- Ability to bind (average strength) [2]: 181
- Ability to bind (average strength) [3]: 230
- Ability to bind (average strength) [4]: 2420
- Ability to bind (average strength) [5]: 3270
- Ability to bind (average strength) [6]: 339
- Ability to bind (average strength) [7]: 928
- Ability to bind (average strength) [8]: 1610
- Ability to bind (average strength) [9]: 694
- Ability to bind (average strength) [10]: 129
Substance: commercially available antibody (clone name: LN3) known to bind to HLA-DR
